Laboratory results from patent CN114907480A (JIANGSU XINTRUM PHARMACEUTICALS CO LTD, dated 2022).
Each block holds one binder with its values, some of them ahead of it.

How the values were obtained:
[1] = molecular target: T1, 重组人CD73蛋白 (自主表达的人源CD73蛋白, C端6×His标签) (human, UniProt P21589 27-549, limits assumed); assay: SPR, Biacore T200, antibody captured by anti-mouse Fc IgG on CM5 chip, human CD73 as analyte, 25℃, 1:1 model
T1 sequence: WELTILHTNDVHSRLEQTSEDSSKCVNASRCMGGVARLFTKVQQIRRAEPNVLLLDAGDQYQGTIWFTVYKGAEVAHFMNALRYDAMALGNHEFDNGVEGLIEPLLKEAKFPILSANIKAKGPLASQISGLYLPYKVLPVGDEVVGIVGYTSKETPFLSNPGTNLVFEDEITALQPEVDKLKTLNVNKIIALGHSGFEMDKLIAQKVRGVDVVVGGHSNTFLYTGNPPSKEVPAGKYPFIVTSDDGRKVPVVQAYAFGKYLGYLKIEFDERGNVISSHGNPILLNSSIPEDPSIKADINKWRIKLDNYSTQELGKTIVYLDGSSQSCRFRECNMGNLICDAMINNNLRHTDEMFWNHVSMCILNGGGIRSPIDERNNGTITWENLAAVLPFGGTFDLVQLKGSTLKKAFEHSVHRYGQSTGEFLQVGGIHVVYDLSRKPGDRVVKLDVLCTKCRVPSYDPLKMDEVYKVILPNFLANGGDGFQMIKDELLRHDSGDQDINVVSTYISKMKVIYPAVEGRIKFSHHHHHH

[2] = molecular target: T1, 重组人CD73蛋白 (自主表达的人源CD73蛋白, C端6×His标签); assay: SPR, Biacore T200, antibody captured on CM5 chip, human CD73 as analyte, 25℃, 1:1 model

- Kd [1]: 0.416 nM
- koff [1]: 3.21e-05 s⁻¹
- kon [1]: 77200 M⁻¹ s⁻¹
B1: 抗人CD73单克隆抗体7-C10-Ba-C2 (antibody, V domains shown)
VH: EVQLQQSGPELVKPGASMKISCKASGYSFTGYTMNWVKQSHGKNLEWIGFITPYNGDTIYNQKFKGKATVTVDKSSSTAYMDLLSLTSEDSAVYYCAREGYDGGYFDYWGQGTTLTVSS
VL: DIQMTQSPASLSASVGETVTITCRASENIYSYLAWYQQKQGKSPQLLVYNTQTLAEGVPSRFSGSGSGTQFSLKINSLQPEDFGSYYCQHHYGTPMYPFGGGTKLEIK
notes: Mouse (BALB/c) hybridoma antibody, IgG type, purified from ascites; also called 本发明抗体7-C10-Ba-C2; 本发明的抗CD73单抗

- Kd [2]: 0.141 nM
- koff [2]: 3.91e-05 s⁻¹
- kon [2]: 278000 M⁻¹ s⁻¹
B2: MEDI-9447 (MedImmune公司的抗CD73单克隆抗体) (antibody, V domains shown)
VH: EVQLLESGGGLVQPGGSLRLSCAASGFTFSSYAYSWVRQAPGKGLEWVSAISGSGGRTYYADSVKGRFTISRDNSKNTLYLQMNSLRAEDTAVYYCARLGYGRVDEWGRGTLVTVSS
VL: QSVLTQPPSASGTPGQRVTISCSGSLSNIGRNPVNWYQQLPGTAPKLLIYLDNLRLSGVPDRFSGSKSGTSASLAISGLQSEDEADYYCATWDDSHPGWTFGGGTKLTVL
